Data reported in patent publication US20150218578.

The substances below were run on T1, OsMYB55 (Oryza sativa) (assay: cell_activity). Settings: GUS transactivation in tobacco leaf vs empty vector; almost eight-fold.
T1 sequence: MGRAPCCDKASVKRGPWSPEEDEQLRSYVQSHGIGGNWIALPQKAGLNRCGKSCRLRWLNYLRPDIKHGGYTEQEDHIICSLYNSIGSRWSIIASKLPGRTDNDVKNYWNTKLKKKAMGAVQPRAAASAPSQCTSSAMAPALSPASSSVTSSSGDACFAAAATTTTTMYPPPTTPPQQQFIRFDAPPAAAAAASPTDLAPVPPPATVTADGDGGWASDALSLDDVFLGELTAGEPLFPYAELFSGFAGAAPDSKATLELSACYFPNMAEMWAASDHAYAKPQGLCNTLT

activity, 8 fold:
OsGAD3 promoter 1.5-2 kb (GUS reporter), OsGAT1 promoter 1.5-2 kb (GUS reporter), OsGS1;2 promoter 1.5-2 kb (GUS reporter)
